Biological target: HLA-A*02:01
Test: IEDB peptide-MHC binding, purified MHC/competitive/radioactivity; filed as Kd, often an IC50 or EC50 that approximates it; ≥ and ≤ were set here for values at or beyond the usual limits of such assays
[1] = source organism: Hepatitis B virus subtype ayw

Sequence: FLCILLLCLI
- Kd (source organism: Hepatitis B virus adw/Indonesia/PIDW420): 2.38 µM

Sequence: PLERFAELV
- Kd (source organism: Homo sapiens): ≥ 50 µM

Sequence: NMGLKFRQLL
- Kd [1]: ≥ 50 µM

Sequence: RLCVQSTHV
- Kd (source organism: Human papillomavirus 16): 16.7 µM

Sequence: KLPGLLSRDL
- Kd (source organism: Homo sapiens): ≥ 50 µM

Sequence: DLFGIWSKV
- Kd (source organism: Homo sapiens): ≥ 25 µM

Sequence: LLYQTFGRKL
- Kd [1]: ≥ 50 µM

Sequence: CLTFGRETV
- Kd [1]: ≥ 50 µM

Sequence: RMRGTFSAPL
- Kd [1]: 0.046 µM

Sequence: DLVVSYVNV
- Kd (source organism: Hepatitis B virus): ≥ 50 µM

Sequence: HLSLRGLPV
- Kd [1]: 12.5 µM

Sequence: HLEGKVILV
- Kd (source organism: HIV-1 M:B_MN): 8.33 µM

Sequence: ILCWGELMTL
- Kd [1]: 0.026 µM

Sequence: ALSRKVAELV
- Kd (source organism: Homo sapiens): ≥ 50 µM

Sequence: DLESEFQAAL
- Kd (source organism: Homo sapiens): ≥ 50 µM

Sequence: GLRDLAVAV
- Kd (source organism: Hepatitis C virus (isolate Taiwan)): 1.47 µM

Sequence: NMGLKFRQL
- Kd [1]: ≥ 50 µM

Sequence: ELRHYSDSV
- Kd (source organism: human papillomavirus 18): ≥ 50 µM

Sequence: PLSYQHFRRL
- Kd [1]: ≥ 50 µM

Sequence: SLQLVFGIEL
- Kd (source organism: Homo sapiens): 0.102 µM

Sequence: ELHPDKWTV
- Kd (source organism: HIV-1 M:B_MN): ≥ 50 µM

Sequence: PLTSIISAV
- Kd (source organism: Homo sapiens): 3.33 µM

Source: the Immune Epitope Database (IEDB)
